Experimental data from patent publication US7078203 (UNIVERSITY OF NORTH CAROLINA AT CHAPEL HILL, dated 2006).

Assays:
[1] = target: T1, mouse APC2 fused to the Gal4 DNA-binding domain (yeast; mouse, UniProt P04386 1-147; Q8BZQ7 15-837, limits assumed); test: yeast two-hybrid, -LWH with 5 mM 3-AT
T1 construct: also called GAL4BD-APC2

myc-epitope tagged APC2 = myc-epitope tagged APC2 (mouse, UniProt Q8BZQ7 15-837); test: co-immunoprecipitation from transfected HeLa cells
[2] = target: T2, HA-epitope tagged human ROC1 (human, UniProt P62877 1-108); test: co-immunoprecipitation with anti-HA from [35S]-methionine labelled transfected cells
T2 construct: Expressed by transfection in mammalian cells; tag written first because of the name HA-ROC1; also called HA-ROC1
T2 sequence (P62877 whole entry): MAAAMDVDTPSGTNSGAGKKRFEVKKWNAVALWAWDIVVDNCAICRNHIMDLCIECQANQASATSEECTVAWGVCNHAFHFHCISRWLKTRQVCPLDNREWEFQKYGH

[3] = target: CDC53 fused to the Gal4 DNA binding domain (pGBT8-CDC53) (yeast; S. cerevisiae, UniProt P04386 1-147; Q12018 1-815); test: yeast two-hybrid
Description: (§1) The yeast genome contains four cullin members, CDC53, CUL-B (ORF YGR003w), CUL-C(ORF YJL047c) and APC2. Each gene was fused in-frame with the Gal4 DNA binding domain and co-transformed with ScROC1 or ScAPC11 fused in-frame with the GAL4 activation domain. ScAPC2 was self-activating as a bait and was fused in-framed with the GAL4 activation domain and tested with ScROC1 fused in-frame with the DNA binding domain.

[4] = target: CUL-B (ORF YGR003w) fused to the Gal4 DNA binding domain (yeast; S. cerevisiae, UniProt P04386 1-147; P53202 1-744); test: yeast two-hybrid
Description: as §1

[5] = target: human ROC1 (untagged: in vitro translated or endogenous in HeLa and Saos-2 cells) (human, UniProt P62877 1-108); test: anti-ROC1 immunopurification from HeLa lysate, microsequencing of co-precipitated 70 to 120 kDa proteins
Chain of human ROC1 (untagged: in vitro translated or endogenous in HeLa and Saos-2 cells) (P62877 whole entry): as above

Chain of myc-epitope tagged APC2 (Q8BZQ7 15-837): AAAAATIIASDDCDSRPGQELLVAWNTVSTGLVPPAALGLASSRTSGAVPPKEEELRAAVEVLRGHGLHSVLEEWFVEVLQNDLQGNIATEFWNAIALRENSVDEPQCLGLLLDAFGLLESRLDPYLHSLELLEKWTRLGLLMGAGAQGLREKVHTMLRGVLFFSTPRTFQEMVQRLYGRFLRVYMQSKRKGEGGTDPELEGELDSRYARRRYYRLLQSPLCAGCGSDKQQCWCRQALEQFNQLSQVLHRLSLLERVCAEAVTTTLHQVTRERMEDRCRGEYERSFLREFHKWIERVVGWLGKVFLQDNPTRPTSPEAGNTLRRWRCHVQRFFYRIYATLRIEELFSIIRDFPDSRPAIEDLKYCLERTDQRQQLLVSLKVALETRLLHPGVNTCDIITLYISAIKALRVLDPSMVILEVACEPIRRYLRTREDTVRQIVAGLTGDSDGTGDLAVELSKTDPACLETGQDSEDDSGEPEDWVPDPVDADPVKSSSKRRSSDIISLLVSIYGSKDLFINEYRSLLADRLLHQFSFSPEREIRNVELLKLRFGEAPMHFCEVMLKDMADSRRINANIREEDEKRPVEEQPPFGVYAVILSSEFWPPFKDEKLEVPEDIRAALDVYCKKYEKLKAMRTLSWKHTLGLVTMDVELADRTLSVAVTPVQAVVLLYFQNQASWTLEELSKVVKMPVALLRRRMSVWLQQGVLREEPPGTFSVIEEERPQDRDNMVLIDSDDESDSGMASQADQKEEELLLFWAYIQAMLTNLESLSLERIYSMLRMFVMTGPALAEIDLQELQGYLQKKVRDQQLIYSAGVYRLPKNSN

B1: full length human ROC2 fused to the Gal4 DNA activation domain (other, not shown: large carriers)
chain: MFSLKKWNPVAMWSWDVECDTCAICRVQVMDACLRCQAENKQEDCVVVWGECNHSFHNCCMSLWVKQNNRCPLCQQDWVVQRIGK
notes: Yeast two-hybrid prey
binding result [1]: no binding

B2: HA tagged human ROC2 (other, not shown: small tags and cut ends)
chain: B1 chain
notes: Migrates as a doublet in transfected cells; also called HA-ROC2
binding result (myc-epitope tagged APC2): no binding

B3: myc-epitope tagged mouse cullin 4A (other, UniProt Q3TCH7 1-759, looked up, not shown: small tags and cut ends)
chain: MADEGPRKGSVSALMGRTNGLTKPAALAGGPAKPGGTGGSRKLVIKNFRDRPRLPDNYTQDTWRKLHEAVKAIQSSTSIRYNLEELYQAVENLCSHKVSPTLYKQLRQVCEDHVQAQILPFREDSLDSVLFLKKINTCWQDHCRQMIMIRSIFLFLDRTYVLQNSMLPSIWDMGLELFRNHIISDRMVQSKTIDGILLLIGRERSGEAVDRSLLRSLLSMLSDLQVYKDSFELKFLEETNCLYAAEGQRLMQDREVPEYLNHVSKRLEEEADRVITYLDHSTQKPLIACVEKQLLGEHLTAILQKGLEHLLDENRVPDLTQMYQLFSRVKGGQHALLQHWSEYIKTFGTTIVINPEKDKDMVQDLLDFKDKVDHVVEVCFQRNERFINLMKESFETFINKRPNKPAELIAKHVDSKLRAGNKEATDEELERILDKIMILFRFIHGKDVFEAFYKKDLAKRLLVGKSASVDAEKSMLSKLKHECGAAFTSKLEGMFKDMELSKDIMVHFKQHMQNQSAPGPIDLTVNILTMGYWPTYTPMEVHLPPEMVRLQEVFKTFYLGKHSGRKLQWQTTLGHAVLKADFKEGKKEFQVSLFQTLVLLMFNEGDGFSFEEIKMATGIEDSELRRTLQSLACGKARVLIKSPKGKEVEDGDKFIFNADFKHKLFRIKINQIQMKETVEEQVSTTERVFQDRQYQIDAAIVRIMKMRKTLGHNLLVSELYNQLKFPVKPGDLKKRIESLIDRDYMERDKDSPNQYHYVA
notes: also called myc-mCUL4A
binding result [2]: binds

B4: ScAPC11 fused to the GAL4 activation domain (other, S. cerevisiae, UniProt Q12157 1-165, looked up, not shown: large carriers)
chain: MKVKINEVHSVFAWSWHIPSTSDEDAANNDPIGNDEDEDVCGICRASYNGTCPSCKFPGDQCPLVIGLCHHNFHDHCIYRWLDTPTSKGLCPMCRQTFQLQKGLAINDAHVQKFVEIVSRRREEMIEEGVAEEFVDFDEPIRQNTDNPIGRQQVDTILDEDFLLR
notes: also called yeast APC11
binding result [3]: no binding | binding result [4]: no binding

B5: human CUL2 (endogenous in HeLa cells) (other, UniProt Q13617 1-745, looked up)
chain: MSLKPRVVDFDETWNKLLTTIKAVVMLEYVERATWNDRFSDIYALCVAYPEPLGERLYTETKIFLENHVRHLHKRVLESEEQVLVMYHRYWEEYSKGADYMDCLYRYLNTQFIKKNKLTEADLQYGYGGVDMNEPLMEIGELALDMWRKLMVEPLQAILIRMLLREIKNDRGGEDPNQKVIHGVINSFVHVEQYKKKFPLKFYQEIFESPFLTETGEYYKQEASNLLQESNCSQYMEKVLGRLKDEEIRCRKYLHPSSYTKVIHECQQRMVADHLQFLHAECHNIIRQEKKNDMANMYVLLRAVSTGLPHMIQELQNHIHDEGLRATSNLTQENMPTLFVESVLEVHGKFVQLINTVLNGDQHFMSALDKALTSVVNYREPKSVCKAPELLAKYCDNLLKKSAKGMTENEVEDRLTSFITVFKYIDDKDVFQKFYARMLAKRLIHGLSMSMDSEEAMINKLKQACGYEFTSKLHRMYTDMSVSADLNNKFNNFIKNQDTVIDLGISFQIYVLQAGAWPLTQAPSSTFAIPQELEKSVQMFELFYSQHFSGRKLTWLHYLCTGEVKMNYLGKPYVAMVTTYQMAVLLAFNNSETVSYKELQDSTQMNEKELTKTIKSLLDVKMINHDSEKEDIDAESSFSLNMNFSSKRTKFKITTSMQKDTPQEMEQTRSAVDEDRKMYLQAAIVRIMKARKVLRHNALIQEVISQSRARFNPSISMIKKCIEVLIDKQYIERSQASADEYSYVA
notes: also called cullin 2
binding result [5]: binds
